Results taken from patent US20230321261A1, “AXL-SPECIFIC ANTIBODY-DRUG CONJUGATES FOR CANCER TREATMENT” (GENMAB A/S, priority 2016, published 2023).
Residue numbers refer to the chain shown, from its start. Names may count otherwise.

B1: IgG1-AXL-148: AXL-specific human IgG1,κ antibody, VH SEQ ID NO:5, VL SEQ ID NO:6, Ig2 domain binding (antibody, listed as Homo sapiens, V domains shown)
VH: EVQLLESGGGLVQPGGSLRLSCAASGFTFSSYAMTWVRQAPGKGLEWVSAISISGGSTFYADSVKGRFTISRDNSKNTLYLQMNSLRAEDTAVYYCRGYSGYVYDAFDFWGQGTMVTVSS
VL: DIQMTQSPSSLSASVGDRVTITCRASQGISNWLAWYQQKPEKAPKSLIYAASSLQSGVPSRFSGSGSGTDFTLTISSLQPEDFATYYCQQYNSYPLTFGGGTKVEIK
B2: IgG1-AXL-726: AXL-specific human IgG1,κ antibody, VH SEQ ID NO:31, VL SEQ ID NO:33, FN2 domain binding (antibody, listed as Homo sapiens, V domains shown)
VH: QVQLQQWGAGLLKPSETLSLTCAIDGGSFSGYYWSWIRQPPGKGLEWIGEISHSGRTNYNPSLKSRVTISIDTSKNQFSLKLSSVAAADTAVYYCARFITMIRGAIITHFDYWGQGALVTVSS
VL: B1 VL with N31S, N92H, L96Y, G100Q, V104L
B3: IgG1-AXL-726-M101L: point mutant of IgG1-AXL-726, VH SEQ ID NO:32, VL SEQ ID NO:33 (antibody, listed as Homo sapiens, V domains shown)
VH: B2 VH with M101L
VL: B1 VL with N31S, N92H, L96Y, G100Q, V104L
B4: IgG1-AXL-733: AXL-specific human IgG1,κ antibody, VH SEQ ID NO:34, VL SEQ ID NO:35, FN1 domain binding (antibody, listed as Homo sapiens, V domains shown)
VH: QVQLVESGGGVVQPGRSLRLSCAASGFSFSTYAMHWVRQAPGKGLEWVAVISYDGDNKYSADSVKGRFTISRDNSKNTLYLQMNSLRAEDTAVYYCARGRKLGIDAFDIWGQGTMVTVSS
VL: AIQLTQSPSSLSASVGDRVTITCRASQGISSALAWYQQKPGKAPKLLIYDASSLESGVPSRFSGSGSGTDFTLTISGLQPEDFATYYCQQFNSYPFTFGPGTKVDIK

How the values were obtained:
[1] = biological target: T1, AXLECDHis (extracellular domain of human AXL) (Homo sapiens, UniProt P30530); experiment: Binding affinity by Bio-Layer Interferometry (ForteBio OctetRED384); settings: 1:1 model, 30° C.
T1 construct: the extracellular domain (ECD) of human AXL (aa 1-447) with a C-terminal His tag (AXLECDHis); His tag (C); made in house; host or cells: HEK-293F

[2] = biological target: T2, full length human AXL (Homo sapiens, UniProt P30530); experiment: Flow cytometry binding to transfected HEK293T cells; settings: at least 3 experiments
T2 construct: expression constructs for full length human AXL; expressed in transfected cells; host or cells: HEK293T
Experimental: HEK293T cells were transiently transfected with expression constructs for full length human AXL, human AXL with a cynomolgus monkey extracellular domain (ECD) or human AXL with a mouse ECD (see Example 1). Binding of HuMab-AXL antibodies to these cells was evaluated by flow cytometry. Transfected HEK293 cells were incubated with serial dilutions of AXL-antibodies (final concentration range 0.0024-10 µg/mL) for 30 minutes at 4° C. […] Next, cells were washed twice in PBS/0.1% BSA/0.02% azide, resuspended in 120 µL PBS/0.1% BSA/0.02% azide and analyzed on a FACS Cantoll (BD Biosciences).
(§1) Binding curves were analyzed using non-linear regression (sigmoidal dose-response with variable slope) using GraphPad Prism V5.04 software (GraphPad Software, San Diego, CA, USA).

[3] = biological target: T3, human AXL with a cynomolgus monkey extracellular domain (ECD) (Homo sapiens, UniProt P30530, P441T/S191N/S285L/T105A/T112A/T125N/T443A); experiment: as above; settings: at least 3 experiments
T3 construct: aa 1-447); human AXL transmembrane and intracellular part (the remainder of human AXL after the ECD; expressed in transfected cells; host or cells: HEK293T

[4] = biological target: T4, AXL on A431 cells (Homo sapiens, UniProt P30530); experiment: Antibody binding to A431 cells with or without Gas6 pre-incubation; settings: for Antibody binding to A431 cells: EC50 in presence of Gas6 (µg/mL) mean (s.d.) / Antibody binding to A431 cells: Maximal binding in presence of Gas6 (% of binding in absence of Gas6) mean (s.d.): pre-incubation with 10 µg/mL Gas6; for Antibody binding to A431 cells: EC50 w/o Gas6 (µg/mL) mean (s.d.): without Gas6 pre-incubation
T4 construct: AXL-positive A431 cells were incubated; endogenous in cells; host or cells: A431

[5] = biological target: T5, Gas6 binding to AXL on A431 cells (Homo sapiens, UniProt P30530); experiment: Gas6 binding to A431 cells pre-incubated with AXL antibodies; settings: pre-incubation with 10 µg/mL antibody; control antibody b12
T5 construct: endogenous in cells; host or cells: A431
Experimental: Alternatively, A431 cells were pre-incubated with 10 µg/mL AXL antibodies (15 minutes, 4° C.) to assess if the AXL ligand Gas6 could still bind in presence of AXL antibodies. […] After washing three times in PBS/0.1% BSA/0.02% azide, cells were incubated with mouse anti-Gas6 IgG2a (R&D Systems; cat no. MAB885) at 4° C. for 30 min. After washing three times in PBS/0.1% BSA/0.02% azide, cells were incubated with FITC-labelled goat anti-mouse IgG (Dako, Heverlee, Belgium; cat no. F049702) at 4° C. for 30 min in the dark. Next, cells were washed twice in PBS/0.1% BSA/0.02% azide, resuspended in 120 µL PBS/0.1% BSA/0.02% azide and analyzed on a FACS Cantoll (BD Biosciences).
as §1
Therefore, binding of Gas6 to A431 cells that had been pre-incubated with 10 µg/mL AXL antibodies was tested as described in Example 2.

[6] = biological target: T6, human-mouse chimeric AXL mutants (Homo sapiens, UniProt P30530, A151P/A183V/D170T/D266N/G187S/H193Q/P184T/P188S/R148K/R190H/T149A/T182P/V194T); experiment: AXL domain specificity using human-mouse AXL chimeric molecules (flow cytometry); assay type: binding; settings: 1 µg/mL antibody
T6 construct: constructs for expression of various full-length AXL variants were generated; expressed in transfected cells; host or cells: HEK293F

[7] = test system: A431 cells; experiment: Antibody-dependent cell-mediated cytotoxicity (51Cr release); assay type: cell-based, human; settings: concentrations up to 10 µg/mL; PBMC effector to target ratio 100:1
Experimental: The ability of anti-AXL antibodies to induce ADCC of A431 epidermoid carcinoma cells was determined as explained below. As effector cells, peripheral blood mononuclear cells from healthy volunteers (UMC Utrecht, The Netherlands) were used.
A431 cells were collected (5×10^6 cells) in culture medium (RPMI 1640 culture medium supplemented with 10% fetal calf serum (FSC)), to which 100 µCi ^51Cr (Chromium-51; Amersham Biosciences Europe GmbH, Roosendaal, The Netherlands) had been added, and the mixture was incubated in a 37° C. water bath for 1 hour (hr) while shaking. After washing of the cells (twice in PBS, 1200 rpm, 5 min), the cells were resuspended in RPMI1640/10% FSC and counted by trypan blue exclusion. […]
Peripheral blood mononuclear cells (healthy volunteers, UMC Utrecht, Utrecht, The Netherlands) were isolated from 45 mL of freshly drawn heparin blood by Ficoll (Bio Whittaker; lymphocyte separation medium, cat 17-829E) according to the manufacturer’s instructions. After resuspension of cells in RPMI1640/10% FSC, cells were counted by trypan blue exclusion and diluted to a density of 1×10^7 cells/mL.
50 µl of ^51Cr-labeled targets cells were pipetted into 96-well plates, and 50 µl of antibody were added, diluted in RPMI1640/10% FSC (3-fold dilutions at final concentrations range 0.01-10 µg/mL). […] The percentage specific lysis was calculated as follows: […]

[8] = biological target: T7, human AXL transiently expressed by HEK-293F cells (Homo sapiens, UniProt P30530); experiment: Homogeneous antigen specific screening assay (FMAT); assay type: binding
T7 construct: TH1021-AXL (HEK-293F cells transiently expressing full length human AXL; produced as described above); expressed in transfected cells; host or cells: HEK-293F

[9] = test system: PAXF1657 tumors; experiment: PAXF1657 pancreas cancer PDX model; assay type: in vivo, NMRI nu/nu mice; settings: mouse, in vivo
[10] = biological target: T8, human-mouse chimeric AXL mutants (Homo sapiens, UniProt P30530, A349V/A358V/A407T/A411S/A425P/A431G/C405S/D266N/F350L/G397R/H352R/I340V/K439S/P444R/Q372R/Q387R/Q394R/Q436H/R386T/S398P/S400A/S442P/T343M/T443P/V434L); experiment: AXL domain specificity using human-mouse AXL chimeric molecules (flow cytometry); assay type: binding; settings: 1 µg/mL antibody
T8 construct: constructs for expression of various full-length AXL variants were generated; expressed in transfected cells; host or cells: HEK293F

[11] = biological target: T9, human-mouse chimeric AXL mutants (Homo sapiens, UniProt P30530, A273L/A287V/A310S/E275K/E281D/G297E/H300L/L233V/M269V/N230H/P276S/P329T/Q227R/Q272W/R229H/S285L/S298K/S319P/T259N/T312S/V309I); experiment: as above; assay type: binding; settings: 1 µg/mL antibody
T9 construct: constructs for expression of various full-length AXL variants were generated; expressed in transfected cells; host or cells: HEK293F

Molecule | Binding affinity (OCTET) Kdis [1] [s⁻¹] | Binding affinity (OCTET) Kon [1] [M⁻¹ s⁻¹] | Binding EC50 (µg/mL) human AXL Average (s.d.) [2] | Binding EC50 (µg/mL) cynomolgus AXL Average (s.d.) [3] | Antibody binding to A431 cells: EC50 in presence of Gas6 (µg/mL) mean (s.d.) [4] | Antibody binding to A431 cells: Maximal binding in presence of Gas6 (% of binding in absence of Gas6) mean (s.d.) [4] | Antibody binding to A431 cells: EC50 w/o Gas6 (µg/mL) mean (s.d.) [4] | Gas6 binding to A431 cells: Maximal binding in presence of AXL antibodies (% of binding in presence of control antibody) mean (s.d.) [5] | binding to hsAXL-mmIg2 [6] | ADCC in A431 cells (percentage specific lysis) [7] | Maximal binding (Arbitrary units) [8] [Arbitrary units] | anti-tumor activity in the PAXF1657 model (FIG. 10B, 10C) [9] | binding to hsAXL-mmFN2 [10] | binding to hsAXL-mmFN1 [11]
B1 | 0.0044 | 230000 | 0.094 (0.059) µg/mL | 0.152 (0.080) µg/mL | 0.20 (0.30) µg/mL | 93 (5) % | 0.11 (0.13) µg/mL | 106 (7) % | strongly reduced binding | did not induce significant ADCC | 3499 | did not result in anti-tumor activity | – | –
B2 | 0.00013 | 240000 | 0.288 (0.206) µg/mL | 0.349 (0.160) µg/mL | 0.55 (0.69) µg/mL | 97 (10) % | 0.32 (0.35) µg/mL | 98 (10) % | – | – | 3154 | – | lost | –
B3 | 6.9e-05 | – | 0.184 (0.117) µg/mL | 0.250 (0.066) µg/mL | – | – | – | – | – | did not induce significant ADCC | – | – | – | –
B4 | 0.0097 | 160000 | 0.176 (0.094) µg/mL | 0.254 (0.114) µg/mL | 0.62 (0.23) µg/mL | 93 (5) % | 0.49 (0.51) µg/mL | 96 (5) % | – | – | – | – | – | reduced binding
